Measurements published in patent publication US20140235820A1, “METHODS AND COMPOSITIONS FOR MODULATING THE Wnt PATHWAY” (Genentech, Inc., priority 2010, published 2014).
Numbering of substitutions follows the chain as printed. Blank lines part the entries; values can stand above or below the molecule they belong to.

Assays:
LRP6 E1E2 = molecular target: T1, LRP6 E1E2 (Homo sapiens, UniProt O75581); assay: Competition phage ELISA, peptide affinity for LRP6 E1E2; type: binding; conditions: relative to Dkk1 peptide
T1 construct: construct E1E2-amino acids A20-E631 of LPR6; made in house; host or cells: Tni insect cells (baculovirus, secreted)
T1 sequence (O75581 20-631): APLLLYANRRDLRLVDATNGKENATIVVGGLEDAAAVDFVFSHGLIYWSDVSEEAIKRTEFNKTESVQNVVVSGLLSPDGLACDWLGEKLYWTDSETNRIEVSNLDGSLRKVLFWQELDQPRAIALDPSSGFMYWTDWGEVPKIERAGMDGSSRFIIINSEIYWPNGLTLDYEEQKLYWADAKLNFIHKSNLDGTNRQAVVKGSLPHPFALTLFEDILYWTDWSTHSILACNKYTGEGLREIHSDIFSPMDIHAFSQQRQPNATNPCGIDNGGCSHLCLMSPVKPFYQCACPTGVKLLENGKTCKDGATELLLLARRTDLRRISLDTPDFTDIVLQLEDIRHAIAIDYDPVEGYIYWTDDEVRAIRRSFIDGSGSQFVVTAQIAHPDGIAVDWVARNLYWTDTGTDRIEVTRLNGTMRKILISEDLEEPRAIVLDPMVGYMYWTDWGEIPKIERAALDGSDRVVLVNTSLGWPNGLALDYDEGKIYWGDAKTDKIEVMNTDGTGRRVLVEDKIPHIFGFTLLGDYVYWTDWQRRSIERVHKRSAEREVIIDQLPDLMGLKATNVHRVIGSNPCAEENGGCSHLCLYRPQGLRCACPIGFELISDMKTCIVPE
Protocol: Peptide affinities were also determined by competition with phage displaying a binding peptide (competition phage ELISA). Serial dilutions of test peptide were mixed with an appropriate (non-saturating) concentration of phage before exposing the mixture to target and allowing it to reach equilibrium. After washing to remove unbound material, bound phage were detected by incubation with anti-M13 antibody-horseradish peroxidase (HRP) conjugate and exposure to a suitable colorometric HRP substrate.
Seven-residue peptides from Dkk1 and Sost were synthesized by standard Fmoc procedures. FIG. 7B. These peptides include the “NXI” motif described above. Affinities of the peptides for LRP6 E1E2 were determined by competition phage ELISA (41). […] To understand the detailed interactions of the peptides with LRP6, we determined high-resolution co-crystal structures of the peptides bound to the LRP6 E1 β-propeller. Structures were determined by molecular replacement and refined to 1.9 and 1.5 Å resolution for Dkk1 and Sost peptides, respectively (FIG. 8). Remarkably, the peptides show very similar bound-state conformations compared to the antibody loop, in each case placing the key asparagine side chain in position for the “handshake” interaction described above. Peptide isoleucine residues occupy the hydrophobic pocket where the valine side chain of the antibody loop interacts. […]

[1] = molecular target: T2, human LRP6 construct E4 (T933-Q1253) (human, UniProt O75581 933-1253, biotinylated for biolayer interferometry); assay: BLI, biotinylated LRP6 on streptavidin tips
T2 construct: range 933-1253; also called LRP6 E4
T2 sequence (looked up): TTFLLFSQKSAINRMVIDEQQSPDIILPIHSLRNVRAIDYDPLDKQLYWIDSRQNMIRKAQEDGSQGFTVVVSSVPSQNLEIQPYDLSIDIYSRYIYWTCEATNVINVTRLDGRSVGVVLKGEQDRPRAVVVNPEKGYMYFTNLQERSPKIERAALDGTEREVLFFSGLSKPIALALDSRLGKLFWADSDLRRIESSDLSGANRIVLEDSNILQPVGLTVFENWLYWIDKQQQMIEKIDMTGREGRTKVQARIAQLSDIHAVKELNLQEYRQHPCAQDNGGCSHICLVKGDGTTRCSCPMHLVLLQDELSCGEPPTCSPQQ
Protocol: (§1) Binding kinetics were measured by biolayer interferometry using an Octet Red instrument (ForteBio) as previously described (11). Streptavidin (SA) biosensors were loaded with biotinylated hLRP6 in 50 mMTris, pH 8, 300 mM NaCl, 5% (v/v) glycerol, and 0.05% (w/v) Triton X-100. The loaded biosensors were washed in the same buffer before carrying out association and dissociation measurements for the indicated times. The Kd of each interaction was determined using steady state-analysis through the Octet Red software v6.3. Each reported value represents an average of three or more experiments at different concentrations, with a fitted experimental curve for which the square of the correlation coefficient (R²) is above 0.96.
(§2) Purified receptors contained individual β-propeller-EGF-like units (E1, E2, or E4), two β-propellers (E1E2 or E3E4), or four β-propellers (E1E4))—as follows: […]

[2] = molecular target: T3, human LRP6 construct E3E4 (amino acids E631-Q1253) (human, UniProt O75581 631-1253, biotinylated for biolayer interferometry); assay: BLI, biotinylated LRP6 on streptavidin tips
T3 construct: range 631-1253; also called LRP6 E3E4
T3 sequence (looked up): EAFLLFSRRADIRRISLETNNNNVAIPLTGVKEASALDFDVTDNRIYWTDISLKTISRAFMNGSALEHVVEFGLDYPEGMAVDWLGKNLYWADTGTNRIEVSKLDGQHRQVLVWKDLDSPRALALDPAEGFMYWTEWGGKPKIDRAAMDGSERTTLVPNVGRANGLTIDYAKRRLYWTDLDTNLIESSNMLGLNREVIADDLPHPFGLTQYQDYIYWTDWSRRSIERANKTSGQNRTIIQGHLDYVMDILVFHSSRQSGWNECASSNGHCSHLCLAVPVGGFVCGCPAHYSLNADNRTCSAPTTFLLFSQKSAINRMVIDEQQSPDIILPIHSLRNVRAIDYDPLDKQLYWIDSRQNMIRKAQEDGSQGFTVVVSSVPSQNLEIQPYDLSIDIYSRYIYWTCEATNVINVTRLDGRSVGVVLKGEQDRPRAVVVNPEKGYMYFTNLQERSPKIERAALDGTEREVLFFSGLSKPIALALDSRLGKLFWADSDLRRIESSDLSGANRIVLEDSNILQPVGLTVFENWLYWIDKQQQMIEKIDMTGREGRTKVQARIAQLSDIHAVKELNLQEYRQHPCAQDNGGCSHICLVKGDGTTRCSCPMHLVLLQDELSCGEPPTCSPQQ
Protocol: as §1, §2

LRP6 E1E2 Arg141Met = molecular target: T4, LRP6 E1E2 Arg141Met (human, UniProt O75581 20-631); assay: BLI steady-state affinity
T4 construct: range 20-631; also called LRP6 E1E2 R141M
T4 sequence (looked up): T1 sequence (O75581 20-631) with R122M
Protocol: as §1

LRP6 E1E2 Asn185Ser = molecular target: T5, LRP6 E1E2 Asn185Ser (human, UniProt O75581 20-631); assay: BLI steady-state affinity
T5 construct: range 20-631; also called LRP6 E1E2 N185S (analogue of LRP5 BMD mutation Asn198Ser)
T5 sequence (looked up): T1 sequence (O75581 20-631) with N166S
Protocol: as §1

binds more weakly than the Dkk1 peptide (LRP6 E1E2): about 10 fold
Molecule: Ac-LPNAIGR-NH2 (N-terminus and C-terminus assumed) [sclerostin peptide]

binding result [1]: no binding
binding result [2]: no binding
fold loss in affinity against wild-type LRP6 E1E2 (LRP6 E1E2 Arg141Met): 31 fold
fold loss in affinity against wild-type LRP6 E1E2 (LRP6 E1E2 Asn185Ser): 59 fold
B1: Sclerostin (wild type) (ligand, UniProt Q9BQB4 24-213, looked up)
chain: QGWQAFKNDATEIIPELGEYPEPPPELENNKTMNRAENGGRPPHHPFETKDVSEYSCRELHFTRYVTDGPCRSAKPVTELVCSGQCGPARLLPNAIGRGKWWRPSGPDFRCIPDRYRAQRVQLLCPGGEAPRARKVRLVASCKCKRLTRFHNQSELKDFGTEAARPQKGRKPRPRARSAKANQAELENAY
notes: also called SOST; Sost
